Results from patent US20150291697A1 (PERSEUS PROTEOMICS, published 2015).

B1: TfR006 antibody (parent antibody, IgG) (antibody, V domains shown)
VH: QVQLVQSGGGVVQPGRSLRLSCAASGFPFKSYGMHWVRQAPGKGLEWVAVISFDGSSKYYADSVKGRFTISRDNSKNTLYLQMNSLRGEDTAVYYCARDSNFWSGYYSPVDVWGQGTTVTVSS
VL: NFMLTQPHSVSESPGKTVTISCTRSSGSIASNSVQWYQQRPGSAPITVIYEDTQRPSGVPDRFSGSIDSSSNSASLTISGLQTEDEADYYCQSYDSAYHWVFGGGTKLAVL
B2: 3TF12 IgG1 antibody (from 3TF12 scFv of WO 2011/073943) (antibody, V domains shown)
VH: QVQLQESGGGLVQPGGSLRLSCAASGFSFNTYTMHWVRQAPGKGLEWVADIAYDGSTKYYADSVKGRFTISRDNAKNSLYLQMNSLRAEDTAVYYCARDAVAGEGYFDLWGRGTLVTVSS
VL: QSALTQDPAVSVALGQTVRITCQGDSLRSYYASWYQQLPGTAPKLLIYRNNQRPSGVPDRFSGSKSGTSASLAISGLRSEDEADYYCAAWDDSLSAWVFGGGTKLTVLG
notes: also called 3TF12 antibody

Experiments:
[1] = molecular target: human transferrin receptor (TfR) on cells (human, UniProt P02786 1-760); assay: cell-based or functional assay
human transferrin receptor (TfR) on cells, sequence (P02786 whole entry, the tested form may be a part): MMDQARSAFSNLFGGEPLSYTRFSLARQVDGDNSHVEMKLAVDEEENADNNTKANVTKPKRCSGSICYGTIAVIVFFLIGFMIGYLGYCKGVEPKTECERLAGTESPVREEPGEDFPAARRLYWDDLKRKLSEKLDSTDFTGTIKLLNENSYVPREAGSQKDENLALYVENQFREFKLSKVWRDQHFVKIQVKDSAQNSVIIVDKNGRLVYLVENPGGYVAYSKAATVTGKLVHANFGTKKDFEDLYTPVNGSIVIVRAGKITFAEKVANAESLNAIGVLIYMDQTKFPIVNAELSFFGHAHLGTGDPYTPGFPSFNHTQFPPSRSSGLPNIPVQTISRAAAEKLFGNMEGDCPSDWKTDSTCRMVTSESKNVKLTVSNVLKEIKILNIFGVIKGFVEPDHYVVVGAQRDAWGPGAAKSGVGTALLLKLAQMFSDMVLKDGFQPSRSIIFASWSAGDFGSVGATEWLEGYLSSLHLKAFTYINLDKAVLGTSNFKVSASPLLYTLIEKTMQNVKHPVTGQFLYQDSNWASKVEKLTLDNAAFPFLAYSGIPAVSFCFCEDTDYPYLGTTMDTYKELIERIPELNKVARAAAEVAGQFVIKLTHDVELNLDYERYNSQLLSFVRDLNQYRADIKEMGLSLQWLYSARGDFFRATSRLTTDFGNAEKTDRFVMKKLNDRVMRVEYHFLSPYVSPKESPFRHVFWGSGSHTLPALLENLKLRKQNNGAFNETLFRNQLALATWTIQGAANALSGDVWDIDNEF

[2] = molecular target: T1, soluble TfR antigen (human TfR extracellular domain) (human, UniProt P02786 89-760); assay: ELISA, soluble TfR antigen coated at 2 ug/mL, HRP anti-human IgG Fc, A450
T1 construct: also called soluble human TfR
T1 sequence (P02786 89-760 limits assumed): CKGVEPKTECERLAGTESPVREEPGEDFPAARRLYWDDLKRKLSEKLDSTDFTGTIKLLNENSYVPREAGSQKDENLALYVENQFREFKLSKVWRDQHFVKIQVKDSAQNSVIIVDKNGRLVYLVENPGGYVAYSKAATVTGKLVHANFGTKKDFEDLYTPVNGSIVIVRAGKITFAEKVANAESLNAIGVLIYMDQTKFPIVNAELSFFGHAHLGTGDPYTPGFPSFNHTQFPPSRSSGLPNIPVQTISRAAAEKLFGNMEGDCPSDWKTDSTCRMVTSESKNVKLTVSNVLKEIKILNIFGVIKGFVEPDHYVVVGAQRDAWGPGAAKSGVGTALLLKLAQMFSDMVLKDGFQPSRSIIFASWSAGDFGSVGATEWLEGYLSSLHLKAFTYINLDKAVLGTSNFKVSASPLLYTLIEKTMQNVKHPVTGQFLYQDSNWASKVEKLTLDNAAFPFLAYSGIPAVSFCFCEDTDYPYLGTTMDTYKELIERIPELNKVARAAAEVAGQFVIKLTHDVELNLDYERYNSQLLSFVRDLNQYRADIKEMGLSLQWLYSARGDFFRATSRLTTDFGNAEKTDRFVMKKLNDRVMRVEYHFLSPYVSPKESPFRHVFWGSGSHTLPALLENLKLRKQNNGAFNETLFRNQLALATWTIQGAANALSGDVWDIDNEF

Row | Binder | Antibody concentration exhibiting 50% growth rate (IC50), K562 cells [1] | Antibody concentration exhibiting 50% growth rate (IC50), MT-2 cells [1] | binding result [2]
1 | B1 | 0.034 µg/mL | 0.008 µg/mL | 
2 | B2 |  |  | binds
